Measurements published in US20190367592A1 (AC IMMUNE, published 2019).

Columns and labels:
[1] = target: T1, recombinant human Tau monomer, 2N4R isoform (amino acids 2-441) (human, UniProt P10636-8 2-441); experiment: SPR, captured IgG, Tau monomer analyte, 1:1 model; fit-quality column: Yes
T1 construct: range 2-441; N-terminal His-tag removed with TEV protease; also called monomeric Tau
Protocol: (§1) Briefly, IgGs in 1 mL culuture were captured using tip columns that were custom packed with 20 μL MabSelect SuRe resin (Glygen Corp & GE Healthcare). After washing with 1×PBS pH 7.4, IgGs were eluted into 160 μL of 50 mM phosphoric acid pH 3 and neutralized with 12 μL of 20×PBS pH 11. MabSelect SuRe tip columns were stripped in 0.1 M NaOH and regenerated with 1×PBS pH 7.4 for consecutive use of up to 15 times. Purified antibodies in 96-well format were normalized to 0.1 mg/ml using a Hamilton Star liquid handling robot. The “pre-stress” samples were kept at approximately 4° C. and the “post-stress” samples were incubated at 40° C. for two weeks in a PCR machine. Functional stability of the variants was compared by running surface plasmon resonance kinetics experiments with the “pre-stress” and “post-stress” antibody preps. The antibodies were assessed using a human antibody capture CM5 Series S chip generated using the GE Biacore human IgG capture kit and a Biacore T200 instrument. Antibodies diluted to 2 μg/ml were immobilized using a 15 second injection time and 10 μl/min flow rate. Binding to Tau monomer at 0 nM, 26.5 nM and 265 nM, at 25° C., using a flow rate of 40 μl/min, was monitored for a 180 second association phase followed by a 300 second dissociation phase. Samples were run in 10 mM HEPES pH7.4, 150 mM NaCl, 0.05% Tween 20 (HBSP) using a multi-cycle kinetics format. Data was analyzed using BIAevaluation software, fitting a 1:1 binding model. The resulting affinity (KD) values are shown in FIG. 8A-D. A Stability Index was also calculated, using the rationale that affinity-compromised antibodies (due for example to deamidation of key residues) are expected to contribute equally to the IgG capture level (“Ligand Level”) but to contribute less to the measured Tau binding, and that this would be reflected in the experimentally derived value for Rmax. To account for variations in the amount of each antibody captured, Rmax was normalized for the antibody capture level (as measured by “Ligand Level”, Response Units immobilized during antibody capture). Thus Normalized Rmax is calculated as the experimental Rmax (units=RU) divided by the “Ligand Level” (Evaluation output representing the RU captured during the hIgG capture step, units=RU), and Stability Index is calculated here as Normalized Rmax (post-stress) divided by Normalized Rmax (pre-stress).

[2] = target: T1, recombinant human Tau monomer, 2N4R …; experiment: SPR; Normalized Rmax post-stress (2 weeks 40 C) / pre-stress
Protocol: as §1

T1 sequence (P10636 other isoform, or with tags, fused parts or gaps limits assumed): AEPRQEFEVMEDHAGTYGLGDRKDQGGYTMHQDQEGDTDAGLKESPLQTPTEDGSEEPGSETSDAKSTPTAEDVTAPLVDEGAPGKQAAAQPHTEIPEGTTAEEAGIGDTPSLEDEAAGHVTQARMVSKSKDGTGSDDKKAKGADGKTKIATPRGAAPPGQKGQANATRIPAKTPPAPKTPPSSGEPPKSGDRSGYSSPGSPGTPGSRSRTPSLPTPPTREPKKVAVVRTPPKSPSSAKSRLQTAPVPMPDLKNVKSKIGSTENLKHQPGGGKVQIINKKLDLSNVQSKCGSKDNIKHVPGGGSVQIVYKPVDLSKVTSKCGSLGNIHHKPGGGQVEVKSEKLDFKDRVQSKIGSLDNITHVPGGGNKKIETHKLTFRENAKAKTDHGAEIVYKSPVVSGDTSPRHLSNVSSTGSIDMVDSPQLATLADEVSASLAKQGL

Binder	Kd [1] [nM]	Stability Index [2] [%]
hu37D3-H9.v30.5 (antibody, V domains shown) VH: EVQLVESGGGLVQPGGSLRLSCAASGLIFRSYGMSWVRQAPGKGLEWVATINSGGTYTYYPDSVKGRFTISRDNSKNTLYLQMNSLRAEDTAVYYCANSYSGAMDYWGQGTLVTVSS VL: DDVLTQTPLSLPVTPGQPASISCRSSQSIVHSIGNTYFEWYLQKPGQSPQLLIYKVSNRFSGVPDRFSGSGSGTDFTLKISRVEAEDVGVYYCFQGSLVPWTFGQGTKVEIK	29.1	80
hu37D3.v29.1 (antibody, V domains shown) VH: EVQLVESGGGLVQPGGSLRLSCAASGLIFRSYGMSWVRQAPGKGLEWVATINSGGTYTYYPDSVKGRFTISRDNSKNTLYLQMNSLRAEDTAVYYCANSYSGAMDYWGQGTLVTVSS VL: EDVLTQTPLSLPVTPGQPASISCRSSQSIVHSNGDTYFEWYLQKPGQSPQLLIYKVSNRFSGVPDRFSGSGSGTDFTLKISRVEAEDVGVYYCFQGSLVPWTFGQGTKVEIK	13.5	70
hu37D3.v29.14 (antibody, V domains shown) VH: EVQLVESGGGLVQPGGSLRLSCAASGLIFRSYGMSWVRQAPGKGLEWVATINSGGTYTYYPDSVKGRFTISRDNSKNTLYLQMNSLRAEDTAVYYCANSYSGAMDYWGQGTLVTVSS VL: EDVLTQTPLSLPVTPGQPASISCRSSQSIVHSNALTYFEWYLQKPGQSPQLLIYKVSNRFSGVPDRFSGSGSGTDFTLKISRVEAEDVGVYYCFQGSLVPWTFGQGTKVEIK	22	92
hu37D3.v29.11 (antibody, V domains shown) VH: EVQLVESGGGLVQPGGSLRLSCAASGLIFRSYGMSWVRQAPGKGLEWVATINSGGTYTYYPDSVKGRFTISRDNSKNTLYLQMNSLRAEDTAVYYCANSYSGAMDYWGQGTLVTVSS VL: EDVLTQTPLSLPVTPGQPASISCRSSQSIVHSNAATYFEWYLQKPGQSPQLLIYKVSNRFSGVPDRFSGSGSGTDFTLKISRVEAEDVGVYYCFQGSLVPWTFGQGTKVEIK	27.9	67
hu37D3.v29.12 (antibody, V domains shown) VH: EVQLVESGGGLVQPGGSLRLSCAASGLIFRSYGMSWVRQAPGKGLEWVATINSGGTYTYYPDSVKGRFTISRDNSKNTLYLQMNSLRAEDTAVYYCANSYSGAMDYWGQGTLVTVSS VL: EDVLTQTPLSLPVTPGQPASISCRSSQSIVHSNAHTYFEWYLQKPGQSPQLLIYKVSNRFSGVPDRFSGSGSGTDFTLKISRVEAEDVGVYYCFQGSLVPWTFGQGTKVEIK	7	50
hu37D3.v29.10 (antibody, V domains shown) VH: EVQLVESGGGLVQPGGSLRLSCAASGLIFRSYGMSWVRQAPGKGLEWVATINSGGTYTYYPDSVKGRFTISRDNSKNTLYLQMNSLRAEDTAVYYCANSYSGAMDYWGQGTLVTVSS VL: EDVLTQTPLSLPVTPGQPASISCRSSQSIVHSNAETYFEWYLQKPGQSPQLLIYKVSNRFSGVPDRFSGSGSGTDFTLKISRVEAEDVGVYYCFQGSLVPWTFGQGTKVEIK	17.4	100
hu37D3.v29.9 (antibody, V domains shown) VH: EVQLVESGGGLVQPGGSLRLSCAASGLIFRSYGMSWVRQAPGKGLEWVATINSGGTYTYYPDSVKGRFTISRDNSKNTLYLQMNSLRAEDTAVYYCANSYSGAMDYWGQGTLVTVSS VL: EDVLTQTPLSLPVTPGQPASISCRSSQSIVHSNAQTYFEWYLQKPGQSPQLLIYKVSNRFSGVPDRFSGSGSGTDFTLKISRVEAEDVGVYYCFQGSLVPWTFGQGTKVEIK	7.3	86
hu37D3.v28.F3 (antibody, V domains shown) VH: EVQLVESGGGLVQPGGSLRLSCAASGLIFRSYGMSWVRQAPGKGLEWVATINSGGTYTYYPDSVKGRFTISRDNSKNTLYLQMNSLRAEDTAVYYCANSYSGAMDYWGQGTLVTVSS VL: DDVLTQTPLSLPVTPGQPASISCRSSQSIVHTNANTYFEWYLQKPGQSPQLLIYKVSNRFSGVPDRFSGSGSGTDFTLKISRVEAEDVGVYYCFQGSLVPWTFGQGTKVEIK	9.5	70

Now those with a lower Kd [1], led by results:

Kd [1] [nM]	Stability Index [2] [%]	Binder
1.9	51	hu37D3.v28.F2 (antibody, V domains shown) VH: EVQLVESGGGLVQPGGSLRLSCAASGLIFRSYGMSWVRQAPGKGLEWVATINSGGTYTYYPDSVKGRFTISRDNSKNTLYLQMNSLRAEDTAVYYCANSYSGAMDYWGQGTLVTVSS VL: DDVLTQTPLSLPVTPGQPASISCRSSQSIVHTNGNTYFEWYLQKPGQSPQLLIYKVSNRFSGVPDRFSGSGSGTDFTLKISRVEAEDVGVYYCFQGSLVPWTFGQGTKVEIK
4.6	90	hu37D3.v29.7 (antibody, V domains shown) VH: EVQLVESGGGLVQPGGSLRLSCAASGLIFRSYGMSWVRQAPGKGLEWVATINSGGTYTYYPDSVKGRFTISRDNSKNTLYLQMNSLRAEDTAVYYCANSYSGAMDYWGQGTLVTVSS VL: EDVLTQTPLSLPVTPGQPASISCRSSQSIVHSNGLTYFEWYLQKPGQSPQLLIYKVSNRFSGVPDRFSGSGSGTDFTLKISRVEAEDVGVYYCFQGSLVPWTFGQGTKVEIK
1.4	62	hu37D3.v29.6 (antibody, V domains shown) VH: EVQLVESGGGLVQPGGSLRLSCAASGLIFRSYGMSWVRQAPGKGLEWVATINSGGTYTYYPDSVKGRFTISRDNSKNTLYLQMNSLRAEDTAVYYCANSYSGAMDYWGQGTLVTVSS VL: EDVLTQTPLSLPVTPGQPASISCRSSQSIVHSNGKTYFEWYLQKPGQSPQLLIYKVSNRFSGVPDRFSGSGSGTDFTLKISRVEAEDVGVYYCFQGSLVPWTFGQGTKVEIK
6.7	79	hu37D3.v29.13 (antibody, V domains shown) VH: EVQLVESGGGLVQPGGSLRLSCAASGLIFRSYGMSWVRQAPGKGLEWVATINSGGTYTYYPDSVKGRFTISRDNSKNTLYLQMNSLRAEDTAVYYCANSYSGAMDYWGQGTLVTVSS VL: EDVLTQTPLSLPVTPGQPASISCRSSQSIVHSNAKTYFEWYLQKPGQSPQLLIYKVSNRFSGVPDRFSGSGSGTDFTLKISRVEAEDVGVYYCFQGSLVPWTFGQGTKVEIK
1.4	64	hu37D3.v29.5 (antibody, V domains shown) VH: EVQLVESGGGLVQPGGSLRLSCAASGLIFRSYGMSWVRQAPGKGLEWVATINSGGTYTYYPDSVKGRFTISRDNSKNTLYLQMNSLRAEDTAVYYCANSYSGAMDYWGQGTLVTVSS VL: EDVLTQTPLSLPVTPGQPASISCRSSQSIVHSNGHTYFEWYLQKPGQSPQLLIYKVSNRFSGVPDRFSGSGSGTDFTLKISRVEAEDVGVYYCFQGSLVPWTFGQGTKVEIK
5.6	93	hu37D3.v29.3 (antibody, V domains shown) VH: EVQLVESGGGLVQPGGSLRLSCAASGLIFRSYGMSWVRQAPGKGLEWVATINSGGTYTYYPDSVKGRFTISRDNSKNTLYLQMNSLRAEDTAVYYCANSYSGAMDYWGQGTLVTVSS VL: EDVLTQTPLSLPVTPGQPASISCRSSQSIVHSNGETYFEWYLQKPGQSPQLLIYKVSNRFSGVPDRFSGSGSGTDFTLKISRVEAEDVGVYYCFQGSLVPWTFGQGTKVEIK
4.9	76	hu37D3.v29.4 (antibody, V domains shown) VH: EVQLVESGGGLVQPGGSLRLSCAASGLIFRSYGMSWVRQAPGKGLEWVATINSGGTYTYYPDSVKGRFTISRDNSKNTLYLQMNSLRAEDTAVYYCANSYSGAMDYWGQGTLVTVSS VL: EDVLTQTPLSLPVTPGQPASISCRSSQSIVHSNGATYFEWYLQKPGQSPQLLIYKVSNRFSGVPDRFSGSGSGTDFTLKISRVEAEDVGVYYCFQGSLVPWTFGQGTKVEIK
